Results reported in US20170305997A1 (Janssen / Centocor, published 2017).

Legend:
[1] = molecular target: Recombinant human c-Met Fc chimera (human) (UniProt P08581); assay: SPR, serine scan in the ECB15 context
human c-Met on cells [2] = molecular target: T1, human c-Met on cells (human, UniProt P08581 25-1390); assay: cell-based or functional assay
human c-Met on cells [3] = molecular target: T1, human c-Met on cells; assay: binding to NCI-H441 cells, anti-His fluorescence
Method: Purified FN3 domains (50 μL/well; 0 to 1000 nM) were added to the cells for 1 hour at 4° C. in duplicate plates. […] Cells were incubated with biotinylated-anti HIS antibody (diluted 1:160 in FACS stain buffer, 50 μL/well, R&D Systems, cat # BAM050) for 30 minutes at 4° C. […] Cells were washed three times with FACS stain buffer (150 μL/well) and left in FACS stain buffer (50 μL/well).

Binder	Fold Change of KD against the parent [1] [fold]	Inhibition of Proliferation of U87-MG cells (IC50) (human c-Met on cells [2]) [nM]	pMet inhibition in H441 cells (IC50) (human c-Met on cells [2]) [nM]	EC50 (human c-Met on cells [3]) [nM]	further results
ECB15 (designed binder, not shown: small tags and cut ends) MLPAPKNLVVSEVTEDSARLSWDDPWAFYESFLIQYQESEKVGEAIVLTVPGSERSYDLTGLKPGTEYTVSIYGVHNVYKDTNMRGLPLSAIFTTAPAPAPAPAPLPAPKNLVVSRVTEDSARLSWTAPDAAFDSFWIRYFEFLGSGEAIVLTVPGSERSYDLTGLKPGTEYVVNIMGVKGGKISPPLSAIFTT	1				Kd [1]: 0.4 nM; koff [1]: 0.000133 s⁻¹; kon [1]: 351000 M⁻¹ s⁻¹
A3 K78S (designed binder) LPAPKNLVVSEVTEDSARLSWDDPWAFYESFLIQYQESEKVGEAIVLTVPGSERSYDLTGLKPGTEYTVSIYGVHNVYKDTNMRGLPLSAIFTTAPAPAPAPAPLPAPKNLVVSRVTEDSARLSWTAPDAAFDSFWIRYFEFLGSGEAIVLTVPGSERSYDLTGLKPGTEYVVNIMGVKGGSISPPLSAIFTT	0.75				
A3 G40S (designed binder) LPAPKNLVVSEVTEDSARLSWDDPWAFYESFLIQYQESEKVGEAIVLTVPGSERSYDLTGLKPGTEYTVSIYGVHNVYKDTNMRGLPLSAIFTTAPAPAPAPAPLPAPKNLVVSRVTEDSARLSWTAPDAAFDSFWIRYFEFLSSGEAIVLTVPGSERSYDLTGLKPGTEYVVNIMGVKGGKISPPLSAIFTT	4.25				
A3 N70S (designed binder) LPAPKNLVVSEVTEDSARLSWDDPWAFYESFLIQYQESEKVGEAIVLTVPGSERSYDLTGLKPGTEYTVSIYGVHNVYKDTNMRGLPLSAIFTTAPAPAPAPAPLPAPKNLVVSRVTEDSARLSWTAPDAAFDSFWIRYFEFLGSGEAIVLTVPGSERSYDLTGLKPGTEYVVSIMGVKGGKISPPLSAIFTT	14.8				
A3 P81S (designed binder) LPAPKNLVVSEVTEDSARLSWDDPWAFYESFLIQYQESEKVGEAIVLTVPGSERSYDLTGLKPGTEYTVSIYGVHNVYKDTNMRGLPLSAIFTTAPAPAPAPAPLPAPKNLVVSRVTEDSARLSWTAPDAAFDSFWIRYFEFLGSGEAIVLTVPGSERSYDLTGLKPGTEYVVNIMGVKGGKISSPLSAIFTT	4.25				
A3 V68S (designed binder) LPAPKNLVVSEVTEDSARLSWDDPWAFYESFLIQYQESEKVGEAIVLTVPGSERSYDLTGLKPGTEYTVSIYGVHNVYKDTNMRGLPLSAIFTTAPAPAPAPAPLPAPKNLVVSRVTEDSARLSWTAPDAAFDSFWIRYFEFLGSGEAIVLTVPGSERSYDLTGLKPGTEYSVNIMGVKGGKISPPLSAIFTT	9				
A3 L39S (designed binder) LPAPKNLVVSEVTEDSARLSWDDPWAFYESFLIQYQESEKVGEAIVLTVPGSERSYDLTGLKPGTEYTVSIYGVHNVYKDTNMRGLPLSAIFTTAPAPAPAPAPLPAPKNLVVSRVTEDSARLSWTAPDAAFDSFWIRYFEFSGSGEAIVLTVPGSERSYDLTGLKPGTEYVVNIMGVKGGKISPPLSAIFTT	6.75				
A3 F36S (designed binder) LPAPKNLVVSEVTEDSARLSWDDPWAFYESFLIQYQESEKVGEAIVLTVPGSERSYDLTGLKPGTEYTVSIYGVHNVYKDTNMRGLPLSAIFTTAPAPAPAPAPLPAPKNLVVSRVTEDSARLSWTAPDAAFDSFWIRYSEFLGSGEAIVLTVPGSERSYDLTGLKPGTEYVVNIMGVKGGKISPPLSAIFTT	68				
A3 W32S (designed binder) LPAPKNLVVSEVTEDSARLSWDDPWAFYESFLIQYQESEKVGEAIVLTVPGSERSYDLTGLKPGTEYTVSIYGVHNVYKDTNMRGLPLSAIFTTAPAPAPAPAPLPAPKNLVVSRVTEDSARLSWTAPDAAFDSFSIRYFEFLGSGEAIVLTVPGSERSYDLTGLKPGTEYVVNIMGVKGGKISPPLSAIFTT	74.5				
P114AR7P95-D3 (designed binder) LPAPKNLVVSRVTEDSARLSWTAPDAAFDSFWIRYFEFLGSGEAIVLTVPGSERSYDLTGLKPGTEYVVNIMGVKGGSISYPLSAIFTTHHHHHH		1.7	4.6		
P114AR7P95-B9 (designed binder) LPAPKNLVVSRVTEDSARLSWTAPDAAFDSFWIRYFEFLGSGEAIVLTVPGSERSYDLTGLKPGTEYVVQILGVKGGSISVPLSAIFTTHHHHHH		17.4	9.8		
P114AR5P75-E9 (designed binder) LPAPKNLVVSRVTEDSARLSWTAPDAAFDSFFIRYDEFLRSGEAIVLTVPGSERSYDLTGLKPGTEYWVTILGVKGGLVSTPLSAIFTTHHHHHH		1190	1420		
P114AR7P95-D4 (designed binder) LPAPKNLVVSRVTEDSARLSWTAPDAAFDSFWIRYFEFLGSGEAIVLTVPGSERSYDLTGLKPGTEYVVQILGVKGGYISIPLSAIFTTHHHHHH		19.4	19.5	1.4	
P114AR7P92-F3 (designed binder) LPAPKNLVVSRVTEDSARLSWTAPDAAFDSFWIRYFEFLGSGEAIVLTVPGSERSYDLTGLKPGTEYIVNIMGVKGGSISHPLSAIFTTHHHHHH		2.7	8.3		
P114AR7P94-A3 (designed binder, also called P114AR7P95-A3; P114ARP94-A3) LPAPKNLVVSRVTEDSARLSWTAPDAAFDSFWIRYFEFLGSGEAIVLTVPGSERSYDLTGLKPGTEYVVNIMGVKGGKISPPLSAIFTTHHHHHH		9.3	5	1.4	
P114AR7P92-G8 (designed binder) LPAPKNLVVSRVTEDSARLSWTAPDAAFDSFVIRYFEFLGSGEAIVLTVPGSERSYDLTGLKPGTEYVVQILGVKGGYISIPLSAIFTTHHHHHH		124	155	5.9	
P114AR7P95-H8 (designed binder) LPAPKNLVVSRVTEDSARLSWTAPDAAFDSFWIRYFEFVSKGEAIVLTVPGSERSYDLTGLKPGTEYVVNIMGVKGGSISPPLSAIFTTHHHHHH		281	210	4.1	
P114AR7P92-F6 (designed binder) LPAPKNLVVSRVTEDSARLSWTAPDAAFDSFWIRYFEFLGSGEAIVLTVPGSERSYDLTGLKPGTEYVVNILGVKGGGLSVPLSAIFTTHHHHHH		350	165	4.9	
P114AR7P93-D11 (designed binder) LPAPKNLVVSRVTEDSARLSWTAPDAAFDSFWIRYFEFLGSGEAIVLTVPGSERSYDLTGLKPGTEYVVGINGVKGGYISYPLSAIFTTHHHHHH		14.4	16	2.3	
P114AR7P92-H5 (designed binder) LPAPKNLVVSRVTEDSARLSWTAPDAAFDSFWIRYLEFLLGGEAIVLTVPGSERSYDLTGLKPGTEYVVQIMGVKGGTVSPPLSAIFTTHHHHHH		672	766	22	
P114AR7P93-G8 (designed binder) LPAPKNLVVSRVTEDSARLSWTAPDAAFDSFWIRYFEFLGSGEAIVLTVPGSERSYDLTDLKPGTEYGVTINGVKGGRVSTPLSAIFTTHHHHHH		104	460	3.8	
P114AR7P95-F10 (designed binder) LPAPKNLVVSRVTEDSARLSWTAPDAAFDSFWIRYFEFTTAGEAIVLTVPGSERSYDLTGLKPGTEYVVNIMGVKGGSISPPLSAIFTTHHHHHH		130	188	4.4	
P114AR7P94-E5 (designed binder) LPAPKNLVVSRVTEDSARLSWTAPDAAFDSFWIRYFEFLGSGEAIVLTVPGSERSYDLTGLKPGTEYAVNIMGVKGGRVSVPLSAIFTTHHHHHH		196	124	3.4	
P114AR7P93-H9 (designed binder) LPAPKNLVVSRVTEDSARLSWTAPDAAFDSFWIRYFEFLGSGEAIVLTVPGSERSYDLTGLKPGTEYVVQIIGVKGGHISLPLSAIFTTHHHHHH		270	288	12.9	
P114AR7P95-E3 (designed binder) LPAPKNLVVSRVTEDSARLSWTAPDAAFDSFWIRYFEFLGSGEAIVLTVPGSERSYDLTGLKPGTEYVVQIMGVKGGTVSPPLSAIFTTHHHHHH		209	205	3.2	
P114AR7P95-G7 (designed binder) LPAPKNLVVSRVTEDSARLSWTAPDAAFDSFWIRYFELLSTGEAIVLTVPGSERSYDLTGLKPGTEYVVNIMGVKGGSISPPLSAIFTTHHHHHH		692	659	11.3	
